The chains are these.
B1: MBP-tagged glucocorticoid receptor DNA binding domain, hinge and ligand binding domain (MBP-GR DBD-LBD, 418-777, F602S) (domain or fragment, UniProt P04150 418-777, looked up)
chain: PKLCLVCSDEASGCHYGVLTCGSCKVFFKRAVEGQHNYLCAGRNDCIIDKIRRKNCPACRYRKCLQAGMNLEARKTKKKIKGIQQATTGVSQETSENPGNKTIVPATLPQLTPTLVSLLEVIEPEVLYAGYDSSVPDSTWRIMTTLNMLGGRQVIAAVKWAKAIPGFRNLHLDDQMTLLQYSWMSLMAFALGWRSYRQSSANLLCFAPDLIINEQRMTLPCMYDQCKHMLYVSSELHRLQVSYEEYLCMKTLLLLSSVPKDGLKSQELFDEIRMTYIKELGKAIVKREGNSSQNWQRFYQLTKLLDSMHEVVENLLNYCFQTFLDKTMSIEFPEMLAEIITNQIPKYSNGNIKKLLFHQK
B2: p23 (natural protein, human)
chain: MQPASAKWYDRRDYVFIEFCVEDSKDVNVNFEKSKLTFSCLGGSDNFKHLNEIDLFHCIDPNDSKHKRTDRSILCCLRKGESGQSWPRLTKERAKLNWLSVDFNNWKDWEDDSDEDMSNFDRFSEMMNNMGGDEDVDLPEVDGADDDSQDSDDEKMPDLE
B3: CHIP E3 ubiquitin ligase (enzyme, human, UniProt Q9UNE7 1-303, looked up)
chain: MKGKEEKEGGARLGAGGGSPEKSPSAQELKEQGNRLFVGRKYPEAAACYGRAITRNPLVAVYYTNRALCYLKMQQHEQALADCRRALELDGQSVKAHFFLGQCQLEMESYDEAIANLQRAYSLAKEQRLNFGDDIPSALRIAKKKRWNSIEERRIHQESELHSYLSRLIAAERERELEECQRNHEGDEDDSHVRAQQACIEAKHDKYMADMDELFSQVDEKRKKRDIPDYLCGKISFELMREPCITPSGITYDRKDIEEHLQRVGHFDPVTRSPLTQEQLIPNLAMKEVIDAFISENGWVEDY
B4: MBP-tagged glucocorticoid receptor ligand-binding domain (MBP-GR LBD, F602S, 520-777) (domain or fragment, UniProt P04150 520-777, looked up)
chain: IVPATLPQLTPTLVSLLEVIEPEVLYAGYDSSVPDSTWRIMTTLNMLGGRQVIAAVKWAKAIPGFRNLHLDDQMTLLQYSWMSLMAFALGWRSYRQSSANLLCFAPDLIINEQRMTLPCMYDQCKHMLYVSSELHRLQVSYEEYLCMKTLLLLSSVPKDGLKSQELFDEIRMTYIKELGKAIVKREGNSSQNWQRFYQLTKLLDSMHEVVENLLNYCFQTFLDKTMSIEFPEMLAEIITNQIPKYSNGNIKKLLFHQK

In assay [1] the target is T1, Hsp90a (wild-type Hsp90) (human, UniProt P07900 1-732). Put plainly: cryo-EM structure.
For assay [2], the target named is B4. Put plainly: SEC. On the technique in general: SEC sorts molecules by how far they enter the pores of the column.
In assay [3] the target is T1, Hsp90a (wild-type Hsp90). Put plainly: SEC.
For the next assay, the target named is Hop (human, UniProt P31948 1-543). Put plainly: pull-down.
The target in the next assay is D93N Hsp90 (human, UniProt P07900 1-732, D93N). Put plainly: pull-down.

For the molecule B1, the binding result in the assay with Hsp90a (wild-type Hsp90) [1] is “binds”. As to B2, the binding result (in assay [2]; in the assay with Hsp90a (wild-type Hsp90) [1]) was “binds” throughout. As to B3, the binding result in the assay with Hsp90a (wild-type Hsp90) [1] is “binds”. On to B4, for which the binding result with Hsp90a (wild-type Hsp90) [3], with Hop and with D93N Hsp90 was “binds” throughout.

Source of the values: article doi:10.1101/2025.05.28.656676 (bioRxiv, 2025).
